In the DeepSol protein solubility set:

assay: soluble on expression in E. coli; label from the status in PepcDB or PDB records

Soluble on expression in E. coli, not soluble:
MGSDKIHHHHHHMIETQKEQERALLVGVELQQTDNFDMSMEELASLAKTAGALVKGVYTQKREKYDSKTFVGSGKLDEIAQMVEADEIDTVIVNNRLTPRQNVNLEEILGVKVIDRMQLILDIFAMRARSHEGKLQVHLAQLKYMLPRLVGQGIMLSRQAGGIGSRGPGESQLELNRRSIRNQIHDIERQLKTVEKNRATVRERRLQSGVFKIGLIGYTNAGKSTIMNVMTDKRQYEADELFATLDATTKQINLADKFNVTLTDTVGFIQDLPTELISAFKSTLEESMNVDLLLHIIDASDPNHSEQEQVVLDILKDLDMLDIPRLALYNKLDKTDDSFTPSQFPHVMLSAKDENAKGHIQMMVLAKIKTMFERFEVRVPLAESYKLHDLATLALIENRTYEEDVEVVSGYIASANKWKLEEFYDGLS
MGSDKIHHHHHHMIGKIEPLGTSTGKILYNSHCQNILDLSVAETMEIFKSSGVILFRDFGVTPKQMKDFSEQFSGKHIIDFTKVSIDSDKYVNFVDGGMDGLIPHCENSCFPFRPDVIWFCCTVPAEQEGETLFWDGIRVWEELSQESKQLFLSKQLKFSYKNVPVDILKGIIGSNANTIDDIKQRLDSVDGVSYQFNDDKTVSVEYTCSSVVNNKYNHQNAFANHFWVYQKRTEEAIFDDGSRASDEVADEIERIFDKLTEKIPWKAGDLVMMDNSRFLHGRGAFTDNRRQVFTTLSNLKF
MGSDKIHHHHHHMIHFVPPHLEKVRAKLPEIAPTVDVILANLEDAIPADAKGAALAGLVAMSREVDFKALGVGFWTRINCLNSPWHLDEIATIVEKAGDKIDVIMVPKVEGPWDIFYMDQLLASLEAKHGVTRPILLHAILETAEGVMNVEAIAAASPRMQGISLGPADLAASRAMKTTRVGGGHPGYRVIEDPHADGSARVSVQQDLWHYTFAKMVDACAAHGIKPFYGPFGAIDDPVACEQQFRNAFLMGCAGAWSLHPSQIEIAKRVFSPDPAEVAFAKKILEAMPDGTGVAMIDGKMQDDATWKQAKVMVDCARQIAGKDAEYAGLYGL
MGSDKIHHHHHHMIHLAVGRFNIDIIVKLDSIPPIDSSHMTDVLEIMPGGAATNYAVAVTKLGHSAKLLAKVGKSEVVRSLMEKVVELGVGLEYVEELNEKPSATLIFLRNDGTLSMVRRLGASILLTREDVKRRFGLFDVIHFASVSPNVVVRDPYAKLVSYDPGPQAKNIESVDVDILYVNEKEYEMIEDKNIRARFIVIKMGKKGAKIITETEECSVEPIQVEKIVDTTGAGDTFDAAFNVTYSEDKDIVKSLQVASVASGLKVSRIGGISSPTLEEVREYLRKKKPNVICK
MGSDKIHHHHHHMIIDTSCYPTNLVDLAWRHDGEPFSGERLIQMMDGPFTINGKPRRIDKAFIQPPQGNTIYTWTDGEKSGSESIDAYMAYTVEMVKKYPDRFIGCFVYNPRCGVQNGVNAIEHYVKTLGFKMVQFQANMHAYRPDRALDWLRPALQKCAELGVLVKLHTGDGPYSIPTEWVPMMKEFPTVNFIMAHFGVQTGGVYCFEPFQMAMDMPNVYCESGWCLQSRIVEFAKVLPKHKILFGSDTPPNEPGMWLRLLEVLCFEPPQGLNLDEDTLEDYLGNNVARMIGLEPTPVPRTLEEARARLAA
MGSDKIHHHHHHMIKEFNATVRYLESVLESEIDEREFLRISGYSVPMFSRLFSILTDMSLSEYVRLRKLTRAAMDIREGQAKIIDIAFKYGYESSDSFAFAFKQFHQISPSQVRKGLPFKVLLPLQLSLTIQGGKEMDVRIEKKAGFTVAGLLRTAISNEVCPQVWEDLFKNHTYEELAALGSGQSFGVCTLAQADETINYMAAYDVTDSEKATKLGLELLDVHEADYAIFTLIGPVPQSIHAGWRYALETFFPEHGYRHSGAPDFEYYFEGDMSSPDYQMELWIPIVKA
MGSDKIHHHHHHMIKVSQLTVRYGELKAVEDLSLEVQRGEILSLVGPSGCGKTTVVKAILGLIPYEGKIEIFTSRLGYCPQKDVLFDWMTVYENAVLPLVLRKEQPPSNIKELFERFGLSGFEEKRPYQLSGGMRQKLSLLRAVLSGEELLVLDEPFSSVDAYTRKKLQIWLSEIVHRMKSTVVLITHDVEEAVFLSDRILILSDRPARILKEIRVPFSKPRTIKTFSDPRFSEIEEEVLETLMNQP
MGSDKIHHHHHHMILSKTGIRHKEDLVPPANGVDVGIIKIGDGRVMSVTTDPFYFDPVFGYEDSAWFAYHILASDLLTSGANPDYMTVDLNLPLSMTDEEISRMWNAFTEEAARFGTSIITGHTARYAGTSFPMIGGITAMGFIGEDEYVTSAMARPGDKVVLTKTPAIEAAALLTRLFPGTIKAKLGDELFSYGVDLFRKLTTVHESLVCKRFGLRTRVTAMHDVTEGGLLGALFEIADSSGNGIRIHEDSIKVDDYVKRVCSIFSIDPLMAISEGALLITVKPDHAEDLVSSLKANGIDANVIGEMTADPSERIIVGREKRTIGPPQKDPFWTAVEFGISEDWK
MGSDKIHHHHHHMILVTGANGLVGSFLCNELAGKGYRVKALVREKSDTSLLKAVAGSIELVYGDITDAGSLVDAMEDVMCVVHTAAVISFWNKKNKEMYQTNVVGTRNVVDVALEKGVKKMIHISSIAAIGRKATDTRIDEKNNWEESAVNTAYAVTKHQAELEIFRAVEEGLHAVIINPSVILGPGLKGTSSVRLFEYVQQKGKFYTDGDLNYVDVRDVVESIEYFISHETPAGERYILNGGTVSFKTFFEKIAEMLHTNPPSVKASDWMKQIVWRVEAIKAFITGKEPLITKSTARTATNKFEYSADKIMQLSQRSFRPLQDTIYWTCKQLF
MGSDKIHHHHHHMINENQHMTEREPSTRRIKSMQTASEVLRELQSQSEATLSDLCGNIDVAKSTLHTYLQTLVAEGFIDKSDGVYRLGLRFIPLGESVRNRIDLYQLGKEEVKRLAEETNEWVHLTVAYRSREVTLYEHNGGETVAVDYQRRTRESPQYLHCTATGKALLAYFDDDRVTETVATEGLVQQTEQTITDPDELREELEEIRARGYAVNDEEEIRGMRSVGAPIQDVDGTVCGAISVTAPKTRLSGDYLYNDLPELVMEAANIIEINLESAAASGE
MGSDKIHHHHHHMINETRTTLDQSEVDHFSRIAAEWWNPHGKFRPLHQFNPTRLAYIREKICLELHRDPVSLKPFENLKILDIGCGGGLLCEPMARLGAMVVGADASQTNIEVAKIHAAQNGLSIDYRTTTAEALATEGEQFDIILNMEVVEHVADVNLFIEATAKMLKPQGLMFISTLNRTWKAWGLAIIGAEYILRWLPKGTHNYKKFLKPRELKNLLLQNALTVVDEIGVTYNPLNDSWNRSKDMNVNYLLLAKKS
MGSDKIHHHHHHMINFLPYSLDILRAADRDRYISVLFAPKKKRRALAALYAFNAEIARIRENVHNPLIGEIRLRWWYDSIAKSEMEKSESNPILSDLFMAMTLFNLPKTAFLRYCDAQILDLYHNPIATLYDLEFYCGETASIILQLSCQILDPDMAQNFTDAYQHAGIAQGLSGVLRLLSFMQSRYQYYLPADMLKALGIKREELESNRISKEQKCHVIEAMVALSRDHYNRFYEYFNMMPKTLKPAFLPLAIIPASLQKAIQLGAAVFQENAALPLLHRYWFITKAAISSNLPKIL
MGSDKIHHHHHHMINSRARRNLIAQDSGEHRHDFPQILIGWRGEIECEFSKGSGRLNNGLVGIVPNAAEHLFRGLNNNSELLVIDVVLEDPYIQAMEQACNLSFSETLFKQPHFVSLAPEMLPLLEYSANQLLLDKKTATPQLNCQLVSLFMTQLSQMYSPEIKSSAINQRIEATRLNDIIDQRLARPPNNTELANLLHLSESHFYCICQQQFGVSPQKYVMRRRMQRAKFLLLNSKIPLSALASELGFSDVSSFSRAYKKYYQQPPGQTRTLFQLGLNANHASIRK
MGSDKIHHHHHHMINTDHPIRIAIAGLGFGESVHIPASLSNKNIELVGLWHPRPERLKEACNKHNLRAYETWEDLVNDSKVDGIIIATPPAPRYELALEAIKGGKHLLLEKPTCLNAYEVMELQRNALKRNLKIAVDYEYRAVPLFMQAKRIITEKKLDEPYFVKLDWLMSSRANPDRPWNWYSDENSGGGVLGALGTHAFDMIHWLIGPTHSLSAINSTSIEERECPQSKTIKKVTSEDVSISQLQIKSINNNLIPAQVNLSAVTKQSRGFSLEIYGSNGTLVLSSENQNDYVHGFGLWYSNKGDVLKNIQPDSDLSFSKIWTDGRIAPVARIQNWWAQSIADGTPVIPGLVEGLASQIVCDKVKESNSIGMKIEIN
